Results taken from patent US20060257938A1, “Method of screening for drugs that block ligand binding to a lipid binding protein” (priority 2005, published 2006).
“And” between values parts separate entries of the source, which are not always exact repeats. Identical values can stand only once.

Legend:
Type in all cases: binding
Conditions in all cases: response relative to ADIFAB2
[1] = Probe fluorescence ratio response to oleic acid relative to ADIFAB2
How it was run: (§1)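 Fluorescently labeled rat intestinal FABP variants were read at two emission wavelengths, near the unbound maximum (about 420 to 480 nm) and the FFA-bound maximum (about 495 to 580 nm). R = Fλ1/Fλ2 after subtracting probe-free intensity; ΔR = R+agent − R0, normalized to ADIFAB2 (rI-FABP-L72A).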

[2] = Probe fluorescence ratio response to linoleic acid relative to ADIFAB2
How it was run: as §1

[3] = Probe fluorescence ratio response to linolenic acid relative to ADIFAB2
How it was run: as §1

[4] = Probe fluorescence ratio response to palmitic acid relative to ADIFAB2
How it was run: as §1

[5] = Probe fluorescence ratio response to arachidonic acid relative to ADIFAB2
How it was run: as §1

B1: 60S, 72A (protein, listed as Rattus norvegicus)
chain: AFDGTWKVDRNENYEKFMEKMGINVVKRKLGAHDNLKLTITQEGNKFTVKESSNFRNIDSVFELGVDFAYSAADGTELTGTWTMEGNKLVGKFKRVDNGKELIAVREISGNELIQTYTYEGVEAKRIFKKE
modifications: PEPTIDE (1)...(131) wild-type rat intestinal fatty acid binding protein
- DR/DR OA [1]: 0.67
- DR/DR LA [2]: 0.72
- DR/DR LNA [3]: 0.71
- DR/DR PA [4]: 0.59
- DR/DR AA ([5]; Arachidonic acid): 0.56

B2: 62E, 72A (protein, listed as Rattus norvegicus)
chain: AFDGTWKVDRNENYEKFMEKMGINVVKRKLGAHDNLKLTITQEGNKFTVKESSNFRNIDVVEELGVDFAYSAADGTELTGTWTMEGNKLVGKFKRVDNGKELIAVREISGNELIQTYTYEGVEAKRIFKKE
modifications: PEPTIDE (1)...(131) wild-type rat intestinal fatty acid binding protein
- DR/DR OA [1]: 1.52
- DR/DR LA [2]: 1.49
- DR/DR LNA [3]: 1.52
- DR/DR PA [4]: 1.40
- DR/DR AA ([5]; Arachidonic acid): 1.48

B3: 68A, 72A (protein, listed as Rattus norvegicus)
chain: AFDGTWKVDRNENYEKFMEKMGINVVKRKLGAHDNLKLTITQEGNKFTVKESSNFRNIDVVFELGVDAAYSAADGTELTGTWTMEGNKLVGKFKRVDNGKELIAVREISGNELIQTYTYEGVEAKRIFKKE
modifications: PEPTIDE (1)...(131) wild-type rat intestinal fatty acid binding protein
- DR/DR OA [1]: 0.19
- DR/DR LA [2]: 0.18
- DR/DR LNA [3]: 0.19
- DR/DR PA [4]: 0.13
- DR/DR AA ([5]; Arachidonic acid): 0.23

B4: 62I, 72A (protein, listed as Rattus norvegicus)
chain: AFDGTWKVDRNENYEKFMEKMGINVVKRKLGAHDNLKLTITQEGNKFTVKESSNFRNIDVVIELGVDFAYSAADGTELTGTWTMEGNKLVGKFKRVDNGKELIAVREISGNELIQTYTYEGVEAKRIFKKE
modifications: PEPTIDE (1)...(131) wild-type rat intestinal fatty acid binding protein
- DR/DR OA [1]: 1.37
- DR/DR LA [2]: 1.36
- DR/DR LNA [3]: 1.38
- DR/DR PA [4]: 1.27
- DR/DR AA ([5]; Arachidonic acid): 1.40

B5: 60W, 72A (protein, listed as Rattus norvegicus)
chain: AFDGTWKVDRNENYEKFMEKMGINVVKRKLGAHDNLKLTITQEGNKFTVKESSNFRNIDWVFELGVDFAYSAADGTELTGTWTMEGNKLVGKFKRVDNGKELIAVREISGNELIQTYTYEGVEAKRIFKKE
modifications: PEPTIDE (1)...(131) wild-type rat intestinal fatty acid binding protein
- DR/DR OA [1]: 0.76 and 0.763
- DR/DR LA [2]: 0.84 and 0.837
- DR/DR LNA [3]: 0.74 and 0.739
- DR/DR PA [4]: 0.59 and 0.595
- DR/DR AA ([5]; Arachidonic acid): 0.67
- DR/DR AA ([5]; arachidonic acid): 0.670

B6: 102Y, 72A (protein, listed as Rattus norvegicus)
chain: AFDGTWKVDRNENYEKFMEKMGINVVKRKLGAHDNLKLTITQEGNKFTVKESSNFRNIDVVFELGVDFAYSAADGTELTGTWTMEGNKLVGKFKRVDNGKEYIAVREISGNELIQTYTYEGVEAKRIFKKE
modifications: PEPTIDE (1)...(131) wild-type rat intestinal fatty acid binding protein
- DR/DR OA [1]: 0.86
- DR/DR LA [2]: 0.82 and 0.818
- DR/DR LNA [3]: 0.73 and 0.732
- DR/DR PA [4]: 0.39 and 0.387
- DR/DR AA ([5]; arachidonic acid): 0.72 and 0.718

B7: 62A, 72A (protein, listed as Rattus norvegicus)
chain: AFDGTWKVDRNENYEKFMEKMGINVVKRKLGAHDNLKLTITQEGNKFTVKESSNFRNIDVVAELGVDFAYSAADGTELTGTWTMEGNKLVGKFKRVDNGKELIAVREISGNELIQTYTYEGVEAKRIFKKE
modifications: PEPTIDE (1)...(131) wild-type rat intestinal fatty acid binding protein
- DR/DR OA [1]: 0.86
- DR/DR LA [2]: 0.96
- DR/DR LNA [3]: 1.08
- DR/DR PA [4]: 0.57
- DR/DR AA ([5]; Arachidonic acid): 1.08

B8: 62H, 72A (protein, listed as Rattus norvegicus)
chain: AFDGTWKVDRNENYEKFMEKMGINVVKRKLGAHDNLKLTITQEGNKFTVKESSNFRNIDVVHELGVDFAYSAADGTELTGTWTMEGNKLVGKFKRVDNGKELIAVREISGNELIQTYTYEGVEAKRIFKKE
modifications: PEPTIDE (1)...(131) wild-type rat intestinal fatty acid binding protein
- DR/DR OA [1]: 1.40
- DR/DR LA [2]: 1.40
- DR/DR LNA [3]: 1.44
- DR/DR PA [4]: 1.24
- DR/DR AA ([5]; Arachidonic acid): 1.42

B9: 62D, 72A (protein, listed as Rattus norvegicus)
chain: AFDGTWKVDRNENYEKFMEKMGINVVKRKLGAHDNLKLTITQEGNKFTVKESSNFRNIDVVDELGVDFAYSAADGTELTGTWTMEGNKLVGKFKRVDNGKELIAVREISGNELIQTYTYEGVEAKRIFKKE
modifications: PEPTIDE (1)...(131) wild-type rat intestinal fatty acid binding protein
- DR/DR OA [1]: 1.57 and 1.574
- DR/DR LA [2]: 1.60 and 1.598
- DR/DR LNA [3]: 1.58 and 1.576
- DR/DR PA [4]: 1.39 and 1.385
- DR/DR AA ([5]; Arachidonic acid): 1.49
- DR/DR AA ([5]; arachidonic acid): 1.485

B10: 62N, 72A (protein, listed as Rattus norvegicus)
chain: AFDGTWKVDRNENYEKFMEKMGINVVKRKLGAHDNLKLTITQEGNKFTVKESSNFRNIDVVNELGVDFAYSAADGTELTGTWTMEGNKLVGKFKRVDNGKELIAVREISGNELIQTYTYEGVEAKRIFKKE
modifications: PEPTIDE (1)...(131) wild-type rat intestinal fatty acid binding protein
- DR/DR OA [1]: 1.37
- DR/DR LA [2]: 1.34
- DR/DR LNA [3]: 1.40
- DR/DR PA [4]: 1.29
- DR/DR AA ([5]; Arachidonic acid): 1.40

B11: 68D, 72A (protein, listed as Rattus norvegicus)
chain: AFDGTWKVDRNENYEKFMEKMGINVVKRKLGAHDNLKLTITQEGNKFTVKESSNFRNIDVVFELGVDDAYSAADGTELTGTWTMEGNKLVGKFKRVDNGKELIAVREISGNELIQTYTYEGVEAKRIFKKE
modifications: PEPTIDE (1)...(131) wild-type rat intestinal fatty acid binding protein
- DR/DR OA [1]: 1.13
- DR/DR LA [2]: 1.23
- DR/DR LNA [3]: 1.23
- DR/DR PA [4]: 0.52
- DR/DR AA ([5]; Arachidonic acid): 1.24

B12: 62G, 72A (protein, listed as Rattus norvegicus)
chain: AFDGTWKVDRNENYEKFMEKMGINVVKRKLGAHDNLKLTITQEGNKFTVKESSNFRNIDVVGELGVDFAYSAADGTELTGTWTMEGNKLVGKFKRVDNGKELIAVREISGNELIQTYTYEGVEAKRIFKKE
modifications: PEPTIDE (1)...(131) wild-type rat intestinal fatty acid binding protein
- DR/DR OA [1]: 1.46
- DR/DR LA [2]: 1.44
- DR/DR LNA [3]: 1.44
- DR/DR PA [4]: 1.26
- DR/DR AA ([5]; Arachidonic acid): 1.43

B13: 60T, 72A (protein, listed as Rattus norvegicus)
chain: AFDGTWKVDRNENYEKFMEKMGINVVKRKLGAHDNLKLTITQEGNKFTVKESSNFRNIDTVFELGVDFAYSAADGTELTGTWTMEGNKLVGKFKRVDNGKELIAVREISGNELIQTYTYEGVEAKRIFKKE
modifications: PEPTIDE (1)...(131) wild-type rat intestinal fatty acid binding protein
- DR/DR OA [1]: 1.76
- DR/DR LA [2]: 1.73
- DR/DR LNA [3]: 1.73
- DR/DR PA [4]: 1.49
- DR/DR AA ([5]; Arachidonic acid): 1.72

B14: 62C, 72A (protein, listed as Rattus norvegicus)
chain: AFDGTWKVDRNENYEKFMEKMGINVVKRKLGAHDNLKLTITQEGNKFTVKESSNFRNIDVVCELGVDFAYSAADGTELTGTWTMEGNKLVGKFKRVDNGKELIAVREISGNELIQTYTYEGVEAKRIFKKE
modifications: PEPTIDE (1)...(131) wild-type rat intestinal fatty acid binding protein
- DR/DR OA [1]: 1.29
- DR/DR LA [2]: 1.31
- DR/DR LNA [3]: 1.31
- DR/DR PA [4]: 1.18
- DR/DR AA ([5]; Arachidonic acid): 1.30

B15: 68E, 72A (protein, listed as Rattus norvegicus)
chain: AFDGTWKVDRNENYEKFMEKMGINVVKRKLGAHDNLKLTITQEGNKFTVKESSNFRNIDVVFELGVDEAYSAADGTELTGTWTMEGNKLVGKFKRVDNGKELIAVREISGNELIQTYTYEGVEAKRIFKKE
modifications: PEPTIDE (1)...(131) wild-type rat intestinal fatty acid binding protein
- DR/DR OA [1]: 0.91
- DR/DR LA [2]: 0.96
- DR/DR LNA [3]: 0.92
- DR/DR PA [4]: 0.53
- DR/DR AA ([5]; Arachidonic acid): 0.89

B16: 62T, 72A (protein, listed as Rattus norvegicus)
chain: AFDGTWKVDRNENYEKFMEKMGINVVKRKLGAHDNLKLTITQEGNKFTVKESSNFRNIDVVTELGVDFAYSAADGTELTGTWTMEGNKLVGKFKRVDNGKELIAVREISGNELIQTYTYEGVEAKRIFKKE
modifications: PEPTIDE (1)...(131) wild-type rat intestinal fatty acid binding protein
- DR/DR OA [1]: 1.00
- DR/DR LA [2]: 1.02
- DR/DR LNA [3]: 0.96
- DR/DR PA [4]: 0.65
- DR/DR AA ([5]; Arachidonic acid): 0.99

B17: 68C, 72A (protein, listed as Rattus norvegicus)
chain: AFDGTWKVDRNENYEKFMEKMGINVVKRKLGAHDNLKLTITQEGNKFTVKESSNFRNIDVVFELGVDCAYSAADGTELTGTWTMEGNKLVGKFKRVDNGKELIAVREISGNELIQTYTYEGVEAKRIFKKE
modifications: PEPTIDE (1)...(131) wild-type rat intestinal fatty acid binding protein
- DR/DR OA [1]: 0.29
- DR/DR LA [2]: 0.12
- DR/DR LNA [3]: 0.25
- DR/DR PA [4]: 0.13
- DR/DR AA ([5]; Arachidonic acid): 0.18
